Article PMC2739136
Residue numbers refer to the chain shown, from its start.

Legend:
Test in all cases: pull-down
MBP-TraR A157V, P33905 = molecular target: T1, MBP-TraR A157V, P33905
T1 chain: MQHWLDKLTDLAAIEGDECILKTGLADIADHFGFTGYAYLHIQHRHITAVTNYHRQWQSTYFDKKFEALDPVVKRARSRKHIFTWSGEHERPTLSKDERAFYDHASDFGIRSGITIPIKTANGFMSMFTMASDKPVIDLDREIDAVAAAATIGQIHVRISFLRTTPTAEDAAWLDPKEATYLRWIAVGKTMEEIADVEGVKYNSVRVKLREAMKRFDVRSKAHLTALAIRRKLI

MBP-TraR G153E, P33905 = molecular target: T2, MBP-TraR G153E, P33905
T2 chain: T1 chain with G153E, V157A

MBP-TraR A149V, P33905 = molecular target: T3, MBP-TraR A149V, P33905
T3 chain: T1 chain with A149V, V157A

MBP-TraR L5M, P33905 = molecular target: T4, MBP-TraR L5M, P33905
T4 chain: T1 chain with L5M, V157A

MBP-TraR S160F, P33905 = molecular target: T5, MBP-TraR S160F, P33905
T5 chain: T1 chain with V157A, S160F

MBP-TraR A222D, P33905 = molecular target: T6, MBP-TraR A222D, P33905
T6 chain: T1 chain with V157A, A222D

MBP-TraR G153A, P33905 = molecular target: T7, MBP-TraR G153A, P33905
T7 chain: T1 chain with G153A, V157A

MBP-TraR T225S, P33905 = molecular target: T8, MBP-TraR T225S, P33905
T8 chain: T1 chain with V157A, T225S

B1: native TraR (wild type) (protein)
chain: T1 chain with V157A
B1 showed a heterodimer formation (% of wild type) (% of wild type) (MBP-TraR A157V, P33905) of 50, a heterodimer formation (% of wild type) (% of wild type) (MBP-TraR G153E, P33905) of 19 and a heterodimer formation (% of wild type) (% of wild type) (MBP-TraR A149V, P33905) of 19. The heterodimer formation (% of wild type) (% of wild type) (MBP-TraR L5M, P33905) was 99, the heterodimer formation (% of wild type) (% of wild type) (MBP-TraR S160F, P33905) was 69 and the heterodimer formation (% of wild type) (% of wild type) (MBP-TraR A222D, P33905) was 29. For the same protein, the heterodimer formation (% of wild type) (% of wild type) (MBP-TraR G153A, P33905) was 61 and the heterodimer formation (% of wild type) (% of wild type) (MBP-TraR T225S, P33905) was 43.
